Measurements as given in patent publication US20140056903A1 (Regeneron, published 2014).

Biological target: T1, human GFRα3 expressed with a C-terminal mFc tag (human)
T1 construct: also called hGFRα3-mFc
T1 chain: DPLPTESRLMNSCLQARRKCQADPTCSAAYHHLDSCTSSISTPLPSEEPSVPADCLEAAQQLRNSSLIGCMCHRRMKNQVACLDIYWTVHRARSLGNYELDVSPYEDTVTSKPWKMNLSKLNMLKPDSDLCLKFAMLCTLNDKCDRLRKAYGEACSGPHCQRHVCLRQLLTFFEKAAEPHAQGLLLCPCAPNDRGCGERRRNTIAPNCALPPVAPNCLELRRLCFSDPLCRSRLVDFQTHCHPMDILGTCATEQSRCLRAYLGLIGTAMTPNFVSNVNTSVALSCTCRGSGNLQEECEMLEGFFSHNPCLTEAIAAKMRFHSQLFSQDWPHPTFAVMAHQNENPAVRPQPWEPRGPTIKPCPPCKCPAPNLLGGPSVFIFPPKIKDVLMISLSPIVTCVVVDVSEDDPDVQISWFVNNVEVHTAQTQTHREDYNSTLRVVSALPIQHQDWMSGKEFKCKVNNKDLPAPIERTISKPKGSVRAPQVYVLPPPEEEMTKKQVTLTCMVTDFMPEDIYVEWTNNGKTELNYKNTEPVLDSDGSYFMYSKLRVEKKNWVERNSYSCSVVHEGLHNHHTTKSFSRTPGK
Test: SPR, Ab captured, 25C; 25° C.

koff: ≤ 1e-06 s⁻¹
B1: H4H2292S (antibody, human IgG4, V domains shown)
VH: EVQLVESGGGVVQPGRSLRLSCAASGFTFSSYGMHWVRQAPGKGLEWVSFIWYDGSNKYYADSVKGRFTISRDNSKNTLYLQMNSLTAEDTAVYYCARRGILTGTTAFDIWGQGTMVTVSS
VL: DIQMTQSPSSLSASVGDRVTITCRASQSISSYLNWYQQKPGKAPKLLIYAASSLQSGVPSRFSGSGSGTDFTLTIRSLIPEDFATYYCQQTYNTPFTFGPGTKVEIK
notes: human IgG4 Fc (H4H)
